Test results taken from the DeepSol protein solubility set.

Test: soluble on expression in E. coli; label from the status in PepcDB or PDB records
With “MEVMRGVRVIEGMNGGRFPYCNVVVVGDVVIDAGAGLEVMRKVNASLLVLSHLHPDHSSGAWLFKDVLAPAEGRITLDTLARRFVAPDLVESWKRFISAATGLREFECERYEEGVVVKEPEIVAVPVKGHTMDHHVFLIEQKVLFGADVDLTSFGPFYGNPEADPYLFEREMDKLLDIDFEIFVSAHSKPVFGKELEHHHHHH” the “soluble on expression in E. coli” value was “not soluble”.
For “MLYFVLCDLKFNQFSRYPMSYQKIELSISLSLDSPKLDESDFILLSVKYLEKSLGKKKEFSGFFEDIEKLYFKQNYKEAIEKILDFCKKNESLLSEQVVQRLAEVAPRLKSNPKDNESRRLYETLYADHLESVIKQESDLSVFNELRDSYNAVKPEYAVTHETEIKTLDEAKQFILSFVMLNDNVELPLKAQSERYPKKDRSREELGNTPSANPGIMKPNSPNFTDNLVPVRDVPKIAINEKVAGGYSKTKPTTPFVASLSGTTYSLMVVLTDYIEKHKTDKDIEKKVNQIINLWISSYIKEGYHSYSEVVDVLTEPFLQSIFDKANIKLNYGVLDDTHAEFRKAQDYVFGLTIQSAMHHELQERFKNKEKLQEEVKNFESGLNKLNQNVENTGRHREALNKLNEVFQDWSAGKKSYDAFKSESNQLIHDIESEEQKSNRGLGSMLKNLGNYLLYLITLRFLKEDYPKPSSPVTMLVTELRGTLEQIDHFHKTSLSLKKATQPDPKNTSSSDETADVRKSAVDTDKPSKNQDSEVKKTLDSEQLEEVQRQDDKSARLQ”, the “soluble on expression in E. coli” value was “not soluble”.
With “MTTLTQVRPASVFVVSGGAKGITAQCVIELAQHQPCRFILLGRSEVIENEPDFARDCVEESVLKKAIMQHLLAQGEKPTPMSVQKVYHKIVSSREIKATLEAIAATGSQVEYIDVDVTNVAELRQKLADVGKITGIIHGAGNLADKLIEKKTDQDFEKVYTAKVQGLENLLSCVDANQLEHLVLFSSVAGFYGNMGQSDYAIANEILNKSAHLIKQNYPQCHVVAINWGGWDSGMVTPELKKAFAERGIDIIPVDVGTKMLVNELHPSHHDSTQVVIGSPIIPAPGNIDPQLRSYRIRRRMTVEANPFLLDHVIAGTPVLPATCGMSWMINACEECYPGYRYFRCQDFKILKGITFNDKVASEHILEIQEVAKHGSESIEFKTKVLSKTPEGKIHYHFSAHITIVRELPAAPVYESLDMTEDHTIGAIGKDFYQKGGLSLFHGISFQQITRVLNINSQKITVECCWAEIPLETQGQFPVKWHNPYATDLSTQPLWLWLSHVHQEVCLPGQITKSEQFRAIPRNKPFYVSCEIEHKTPSGVTADIILHDREGKIYFRIYQAKAIIAPMNLHLEHHHHHH” the “soluble on expression in E. coli” value was “soluble”.
In the case of “MASAHQTPADANGGESRDEILRAAAELFMEFGYAATSIDAVAQRLGSTKGRIYHHYRSKADLFFDVQVTAMNRLTAQVEPLAREGGGAVGRLAAMALRHTQILLKEMPMQKVAVQGLERHLLEASSAAKRLRAVVKMRDDYEQMFVEVIDDGIREGSFVDLPPRLLSKPFFGALNWATVWYSQRRLQSEEAIDDIAHALAAYALRGLLKDSNDEAARETALFRYDLG”, the “soluble on expression in E. coli” value is reported as “not soluble”.
For “TPAQLISIAVTPINPSVAKGLIRQFKATGTYTDHSVQDVTALATWSSSNPGKAMVNNVTGSVTTVATGNTNIKATIDSISGSSVLNVTPALLTSIEITPTINSITHGLTKQFKATGIFSDKSTQNLTQLVTWISSDPSKIEIENTSGKKGIATASKLGSSNIKAVYKFIQSSPIPITVTDLKLKSITISPSSSSIAKGLTQQFKAIGTFIDGSEQEITNLVTWYSSKSDVAPINNAANAKGLATALSIGSSNISAIYNSISSNKINFNVSAATLDSIKINPVNNNIAKGLTQQYTALGVYSDSTIQDISDSVTWSSSNSDSISISNSTETKGKATALQIGNSKITATYNSISENIDITVSAATL”, the “soluble on expression in E. coli” value was “not soluble”.
For “MTRVRDLMSTHIVHCTPLDNVYEAAVKMKEESIGLIPVVENEQVVGLVTDRDLVVRGIAEKHPGSNKITNVMTTNIISVSPNDSIEKATELMAQHQIRRLPVVDSGQLIGMLALGDLAIRESADDQAGFALSEISERTE”, the “soluble on expression in E. coli” value was “not soluble”.
With “MGSDKIHHHHHHRPYTPDYEIVPEYTNADTWKAYEAFNEHLLDQNKFIYKSSTADKAAVDRWNGAAAIWCQPTYWDMAMNAYKRAKAEGDTQKEQKFKQLCDDLFAGNKAHYANFDFDDNNENTGWFIYDDIMWWTVTLARAYELFGVEEYLSLSEESFGRVWYGSEKVGDTGSYADPEKGLGGGMFWQWQPIKNPNPNEADHGKMACINFPTVVAALTLYNNVPTGRTESTDSHPSYQTKEQYLAKGKEIYAWAVENLVDVTTGQVADSRHGNGNPAWKDHVYNQASYIGASVLLYKATGEKQYLDNAVMAADYTMNTISGTFDLLPFETGAEQGIYTAVFAQYIAMLVYDCDQTQYIPFVKRNINYGWANRDKTRDICGGDYTKLQVEGDAVESYSASGIPALMLLFPTDK” the “soluble on expression in E. coli” value was “not soluble”.
With “MSLRIYFDKILERASPKVERQALTHVERLAMVRRHGDFSLAYSTAVQQKLSYFGDADGYIAFGTKMKHHFALGDPVAAPARRPDFIKRFVETAGDPWFVQISEETARVLAGLGYKVNRLGIDTSLVLSEHDFSGKRNETVRYSERWLLKKGFSFEEDKRTVFLDEIARLSENWRGDRIVKRWEMGFLNRPFYDQLGTDMRRFVLHGPDGELIALLDFDPLFRDGKVIGYTTAFKRKHIDASPHAEIGLTKFAVDRFREEGISVVTLGLSPLVDVTPSGFAESDFWRNTFQRAYASPWVNRRRFNLQGQAAFKRRFHGKEEPVYIAFRKGTYVEMLGLLRLVKAIEGHHHHHH” the “soluble on expression in E. coli” value was “not soluble”.
In the case of “SLSIYSFSQITRSLFLSNGVAANDKLLLSSNRITAIVNASVEVVNVFFEGIQYIKVPVTDARDSRLYDFFDPIADLIHTIDMRQGRTLLHCMAGVSRSASLCLAYLMKYHSMSLLDAHTWTKSRRPIIRPNNGFWEQLINYEFKLFNN”, the “soluble on expression in E. coli” value is reported as “not soluble”.
For “MARTAAALHILVKHKEQADDILAQLKKGAKFHVLAKKYSTCPSGKKGGDLGEFRQGQMVPAFDKACFQGEVLTPQLVKTKFGWHVVKVLYRT”, the “soluble on expression in E. coli” value was “not soluble”.
In the case of “MMNIFILEDDFIQQTRIESIVVGILKETRIPCNQLEVFSTPQKLFESIQERGDHQLYFLDIEIGEYTRCGLELAAAIRQKDPNAVIVFVTTHSEFAPISFKYKVSALDFIDKAGGQKQFKEQIEECIRYTYDMMSSRESKDMFLFETPQTRLKLPYKDILYFATATTPHKVCLWTQTERLEFYGNLSEIQAVAPKLFLCHRSYLVNLDKVVRIDKSKQLLYFENGDSCMVSRLKMKCLFERWEALR”, the “soluble on expression in E. coli” value is reported as “not soluble”.
In the case of “MEEWPALQWSQGTPASGPALQALEEYAFVPRDDESRQGIRTDALLVIRDGRLLYERYAGATGPQTPHLAWSASKSLLAVLLGVAFGEGRFQLQDPAAKFYPPLEAHPDITLADLLHWASGLDWQEDYEYAPLNSSVVAMLYTRGHRDMAAFTVQQAASGPPGQVFRYSSGDSNLLAASLRGMVGEGQYADYPWRALFEPLGITQAVWERDAAGTFVASSYLYLTARDLARIGLLMQRDGRWRDRQLLPKAWVEFCRTPFRGYRANQDVAVAGGHWWLNREVDGAPRPWPDAPADTYAALGHWGQALYVLPAQRLVIVRYGDDRDGSYQHNELLKRVLAAFATPEQPLEHHHHHH”, the “soluble on expression in E. coli” value is reported as “not soluble”.
With “MSTAAKQNRSTSRVSKKKTAAPKEGAAKKSDKGHKYEYVELAKASLTSAQPQHFYAVVIDATFPYKTNQERYICSLKIVDPTLYLKQQKGAGDASDYATLVLYAKRFEDLPIIHRAGDIIRVHRATLRLYNGQRQFNANVFYSSSWALFSTDKRSVTQEINNQDAVSDTTPFSFSSKHATIEKNEISILQNLRKWANQYFSSYSVISSDMYTALNKAQAQKGDFDVVAKILQVHELDEYTNELKLKDASGQVFYTLSLKLKFPHVRTGEVVRIRSATYDETSTQKKVLILSHYSNIITFIQSSKLAKELRAKIQDDHSVEVASLKKNVSLNAVVLTEVDKKHAALPSTSLQDLFHHADSDKELQAQDTFRTQFYVTKIEPSDVKEWVKGYDRKTKKSSSLKGASGKGDNIFQVQFLVKDASTQLNNNTYRVLLYTQDGLGANFFNVKADNLHKNADARKKLEDSAELLTKFNSYVDAVVERRNGFYLIKDTKLIY” the “soluble on expression in E. coli” value was “soluble”.
With “MGSDKIHHHHHHGADFVKGDRTFAADAELGATVTTGNTETTSLKGRLDMKHELGNWENQYLLEALYKEDSGEETGKRYYGLVQGNYKFSDVNYMFANANHEIDPFTGFDSKSTISAGYGHKFVDTEKTTFAVEVGPGFQYKRLDDESAAEAGYDTEESWVAHGVMNFETEITDNSKFKQLFVADYGESLEGRSETSITANIVGALAMKFAVIVRYNSEPLDNKKSTDTETNMTLLYSF” the “soluble on expression in E. coli” value was “not soluble”.
In the case of “MSFIDPYQHIIVEHQYSHKFTVVVLRATKVTKGAFGDMLDTPDPYVELFISTTPDSRKRTRHFNNDINPVWNETFEFILDPNQENVLEITLMDANYVMDETLGTATFTVSSMKVGEKKEVPFIFNQVTEMVLEMSLEV”, the “soluble on expression in E. coli” value is reported as “soluble”.
For “SPSTNRKYPPLPVDKLEEEINRRMADDNKLFREEFNALPACPIQATCEAASKEENKEKNRYVNILPYDHSRVHLTPVEGVPDSDYINASFINGYQEKNKFIAAQGPKEETVNDFWRMIWEQNTATIVMVTNLKERKECKCAQYWPDQGCWTYGNVRVSVEDVTVLVDYTVRKFCIQQVGDVTNRKPQRLITQFHFTSWPDFGVPFTPIGMLKFLKKVKACNPQYAGAIVVHCSAGVGRTGTFVVIDAMLDMMHSERKVDVYGFVSRIRAQRCQMVQTDMQYVFIYQALLEHYLYGDTELEVT”, the “soluble on expression in E. coli” value was “soluble”.
For “MEELTIWEQHTATLYKDPRRGFGIAVSGGHDRASGSVVVSDVVPGGPAEGRLRTGDHIVMVNGVSVENVTSAFAIQILKTCTKTANVTVKRPRRVQLPATKASPASGHQLSDQEEADHGRGYEGDSSSGSGRSWGERSRRSRAGRRGRVGSHGRRSSGGGSEANGLDLVSGYKRLPKQDVLMRPLKSVLVKRRNSEEFGVKLGSQIFIKHITESGLAARNHGLQEGDLILQINGVSSANLSLSDTRRLIEKSEGELTLLVLRDSGQFLVNIPPAVSDSDSSLMEDISDLTSELSQAPPSHVPPPPLKGQRSPEDSQTDSPVETPQPRRRERSVNSRAIAEPESPGESRYDIYRVPSRQSLEDRGYSPDTRVVSFPKGASIGLRLAGGNDVGIFVSGVQAGSPADGQGIQEGDEILQVNGMPFRNLTREEAVQFLLGLPPGEDMELVTQSKQDIFKKMVQSRVGDSFYIRTHFELEPSPPYGLGFTRGDVFHVVDTLYPGSGPGHGHSSHGGLWLAARMGRDLREQERGVIPNQSRAEQLASLEAAQRAAGVGPGASVGSNPRAEFWRLRGLRRGTKKASTQRSREDLSALTRQGHYPPYERVVLREASFKRPVVILGPVADIAMKKLTTEMPEEFEIAESMSRTDSPSKIIKLDTVRVIAERDKHALLDVTPSAIERLNYVQYYPIVIFCAPESRPALKALREWLAPASRRSSRRLYAQAQKLQKHSGHLFTATIPLHGTSDSWYQEVKAVIQQQQARPIWTAEDQLNSSSEDLDLPGHGLAASSGDLSCDSRTNSDYEDTDGEGAYTDREGGPQDVDEEVAPTALARSSEPVWVDDHQGLMGHGTTITDKWETQADSHYTQDQRRQDSMRTYKHEALRKKFTRARDVESSDDEGYDWGPATDL”, the “soluble on expression in E. coli” value was “soluble”.
For “MGNEEEKMNADIFSYEGEGIQCVYDNKNWVMCIKNWKPNNDIENIRYLEVHHATDEQFVLLKGKAVLLAAVKADGACRIDVIPMEPYKVYNIPQGIWFNTITQKDTKLVYVQDAATTAENSEYCDMTQEELNEVKEKASACLD”, the “soluble on expression in E. coli” value was “not soluble”.
